Laboratory results published in patent US9993566B2, “SEZ6 modulators and methods of use” (AbbVie Stemcentrx LLC, priority 2013, dated 2018).

B1: SC17.140: murine anti-SEZ6 antibody (antibody, V domains shown)
VH: EVQLQQSGPELMKPGASVKMSCKASGYTFTDYNMHWVKQNQGKSLEWIGEINPNTGGTGYNQKFKGKATLTVDKFSSTAFIELRSLTSEDSAIYYCTRGGYDHYWYFDVWGAGTTVTVSS
VL: QIVLTQSPAIMSASPGEKVTMTCSASSSVSYMHWYQQKSGTSPKRWIYDTSKLASGVPARFSGSGSGTSYSLTISSMEAEDAATYYCQQWSSTPPTFGSGTKLEIK
modifications: Murine SC17.140 VH; Murine SC17.140 VL
notes: murine anti-SEZ6 antibody
B2: SC17.6: murine anti-SEZ6 antibody; SC17.6 is duplicate of SC17.16 (antibody, V domains shown)
VH: EVQLQQSGPELMKPGASVKMSCKASGYTFTDYNMYWVKQNQGKSLEWIGEINPNNGGTAYNQKFRGKATLTVDKSSSTAYMELRSLTSEDSAVYYCARYDKGFDYWGQGTTLTVSS
VL: DIQMTQSPASLSVSVGETVTITCRASANINSNLVWYQQKQGKSPQLLVYAATNLADGVPSRFSGSGSGTQYSLKINSLQSEDFGNYYCQHFWGTPRTFGGGTKLEIK
modifications: Murine SC17.16 VH; Murine SC17.16 VL
B3: SC17.46 (antibody, V domains shown)
VH: QVQLQQPGAELVKPGASMKLSCKASGYTFTSYWINWVKQRPGQGLEWIGNIFPDTTTTNYNEKFKSKATLTVDTSSSTAYMQLSSLTSDDSAVYYCAREYYDGTYDAMDYWGQGTSVTV
VL: SFVMTQTPKFLLVSAGDRVTITCKASQSVNNDVAWYQQKPGQSPKLLIYYASNRYTGVPDRFTGSGYGTDFTFTISTVQAEDLAVYFCQQDYSSPRTFGGGTKLEIK
modifications: Murine SC17.46 VH; Murine SC17.46 VL

What was measured:
SEZ6 ECD = target: T1, SEZ6 ECD (Homo sapiens, UniProt Q53EL9); assay: Fine epitope mapping (phage display peptide library or yeast-displayed SEZ6 ECD mutants); format: binding; settings: epitope conformational (discontinuous) or linear
T1 construct: SEZ6 extracellular domain (amino acids 1-904); expressed in transfected cells; host or cells: yeast (surface display, Cochran et al. protocol)
Procedure: Epitopes were classified either as conformational (i.e. discontinuous) or linear. Yeast displaying the SEZ6 ECD construct was heat treated for 30 minutes at 80° C. in order to denature the antigen, washed twice in ice-cold PBSA and then subjected to the same staining protocol and flow cytometry analysis as described above. Antibodies that bound to both the denatured and native yeast were classified as binding to a linear epitope, whereas antibodies that bound native yeast but not denatured yeast were classified as conformationally specific.
Fine epitope mapping was further performed on selected antibodies to determine the specific amino acids to which they bound. Antibodies that bound to a linear epitope were mapped using the Ph.D.-12 phage display peptide library kit (New England Biolabs E8110S). The antibody selected for epitope mapping was coated onto a Nunc MaxiSorp tube (Nunc) at 50 μg/mL in 3 mL 0.1 M sodium bicarbonate solution, pH 8 and incubated overnight. The tube was blocked with 3% BSA solution in bicarbonate solution. Then, 10^11 input phage in PBS+0.1% Tween-20 was allowed to bind, followed by ten consecutive washes with 0.1% Tween-20 to wash away non-binding phage. Remaining phage were eluted with 1 mL 0.2 M glycine for 10 minutes at room temperature with gentle agitation, followed by neutralization with 150 μL 1 M Tris-HCl pH 9. Eluted phage were amplified and panned again with 10^11 input phage, using 0.5% Tween-20 during the wash steps to increase selection stringency. DNA from 24 plaques of the eluted phage from the second round was isolated using the Qiaprep M13 Spin kit (Qiagen) and sequenced. Binding of clonal phage was confirmed using an ELISA assay, where the mapped antibody or a control antibody was coated onto an ELISA plate, blocked, and exposed to each clone phage. Phage binding was detected using horseradish peroxidase conjugated anti-M13 antibody (GE Healthcare), and the 1-Step Turbo TMB ELISA solution (Pierce). Phage peptide sequences from specifically binding phage were aligned using Vector NTI (Life Technologies) against the antigen ECD peptide sequence to determine the epitope of binding.
Selected antibodies that bound to a discontinuous epitope were mapped using the technique described by Chao et al. (2007). Libraries of SEZ6 ECD mutants were generated with error prone PCR using nucleotide analogues 8-oxo-2′deoxyguanosine-5′-triphosphate and 2′-deoxy-p-nucleoside-5′triphosphate (both from TriLink Bio) for a target mutagenesis rate of one amino acid mutation per clone. These were transformed into a yeast display format. Using the technique described above for domain-level mapping, the library was stained for c-myc and antibody binding at 50 nM. […] These clones were re-grown, and subjected to another round of FACS sorting for loss of binding to the target antibody. Using the Zymoprep Yeast Plasmid Miniprep kit (Zymo Research), individual ECD clones were isolated and sequenced. Where necessary, mutations were reformatted as single-mutant ECD clones using the Quikchange site directed mutagenesis kit (Agilent).
Individual ECD clones were next screened to determine whether loss of binding was due to a mutation in the epitope, or a mutation that caused misfolding. Mutations that involved cysteine, proline, and stop codons were automatically discarded due to the high likelihood of a misfolding mutation. Remaining ECD clones were then screened for binding to a non-competing, conformationally specific antibody. ECD clones that lost binding to non-competing, conformationally specific antibodies were concluded to contain misfolding mutations, whereas ECD clones that retained equivalent binding as wild type SEZ6 ECD were concluded to be properly folded. Mutations in the ECD clones in the latter group were concluded to be in the epitope. […]

SEZ6 = target: T2, SEZ6 (Homo sapiens, UniProt Q53EL9); assay: Immunohistochemistry validation on FFPE cell pellets; format: binding; settings: FFPE sections
T2 construct: produce a cDNA fragment encoding the mature human SEZ6 protein; IgK signal peptide (N); T2A peptide (residue left after ribosomal skipping; GFP is a separate protein) (C); expressed in transfected cells; host or cells: HEK-293T (lentiviral transduction, pCDH-EF1-MCS-T2A-GFP)
Procedure: Immunohistochemistry (IHC) was performed on PDX tumors to confirm that SEZ6 is expressed on the surface of certain PDX tumors; and in order to determine the location of the SEZ6 protein in the tumor architecture. IHC was performed on formalin fixed paraffin embedded (FFPE) tissue sections using an indirect detection method which included murine monoclonal primary antibody against SEZ6 (SC17.140), mouse specific biotin conjugated secondary antibodies, avidin/biotin complex coupled with horse radish peroxidase, and DAB detection (Nakene P K 1968; 16:557-60). […] Specificity was further confirmed by competing signal with a 5 molar excess of purified recombinant SEZ6 on HEK-293T cells overexpressing human SEZ6 and NTX tumors that were shown by IHC to express SEZ6 (data not shown).

SEZ6L2 = target: T3, SEZ6L2 (Homo sapiens, UniProt Q6UXD5, INS830AYEELLDNRKLEV); assay: ELISA cross reactivity to family member SEZ6L2; format: binding; parameters: key to binds SEZ6 family member SEZ6L2 (dagger): *: antibodies that bind SEZ6 family members SEZ6L and SEZ6L2 are designated with an asterisk and/or a dagger, respectively; †: antibodies that bind SEZ6 family members SEZ6L and SEZ6L2 are designated with an asterisk and/or a dagger, respectively
T3 construct: IgK signal peptide (N, cleaved yes); made in house; host or cells: HEK-293T or CHO-S
T3 sequence (Q6UXD5 with tags, fused parts or gaps with the stated changes): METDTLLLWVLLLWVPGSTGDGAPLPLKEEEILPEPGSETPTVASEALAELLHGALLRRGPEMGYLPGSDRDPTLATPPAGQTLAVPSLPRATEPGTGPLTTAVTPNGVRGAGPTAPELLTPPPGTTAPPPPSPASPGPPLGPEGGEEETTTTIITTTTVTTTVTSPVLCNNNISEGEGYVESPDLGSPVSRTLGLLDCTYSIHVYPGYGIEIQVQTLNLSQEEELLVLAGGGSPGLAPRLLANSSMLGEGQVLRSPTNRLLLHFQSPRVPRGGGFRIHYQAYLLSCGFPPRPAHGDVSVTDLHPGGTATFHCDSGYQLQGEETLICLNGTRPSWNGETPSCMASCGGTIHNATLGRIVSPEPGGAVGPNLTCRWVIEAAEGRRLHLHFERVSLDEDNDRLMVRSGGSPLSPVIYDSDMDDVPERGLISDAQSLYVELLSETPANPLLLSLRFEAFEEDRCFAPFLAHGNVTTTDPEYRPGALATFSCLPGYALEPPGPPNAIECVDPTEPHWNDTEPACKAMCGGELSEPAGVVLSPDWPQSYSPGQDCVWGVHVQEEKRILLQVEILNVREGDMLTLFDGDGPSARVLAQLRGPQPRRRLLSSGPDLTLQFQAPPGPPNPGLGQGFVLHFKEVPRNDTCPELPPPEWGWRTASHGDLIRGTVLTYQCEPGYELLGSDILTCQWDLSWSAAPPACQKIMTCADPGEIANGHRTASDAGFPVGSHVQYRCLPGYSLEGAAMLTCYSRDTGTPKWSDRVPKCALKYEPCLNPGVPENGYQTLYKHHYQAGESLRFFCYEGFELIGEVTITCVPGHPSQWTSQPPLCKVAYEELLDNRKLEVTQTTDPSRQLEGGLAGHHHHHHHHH
Procedure: To determine cross reactivity to family member proteins, SEZ6L and SEZ6L2, an ELISA-based assay was used. Plates were coated with SEZ6, SEZ6L, or SEZ6L2 proteins at 0.2 μg/mL in PBS overnight. After washing with PBS containing 0.05% (v/v) Tween 20 (PBST), the wells were blocked with 2% (w/v) BSA in PBS (PBSA), 100 μL/well for 1 hour at room temperature. Antibody was then added at 1 μg/mL in 100 μL PBSA for 1 hour at room temperature. After washing with PBST, 100 μL/well HRP-labeled goat anti-mouse IgG diluted 1:2,000 in PBSA for 1 hour at room temperature. The plates were washed and 100 μL/well of the TMB substrate solution (Thermo Scientific 34028) was added for 15 minutes at room temperature. After developing, an equal volume of 2M H2SO4 was added to stop substrate development and analyzed by spectrophotometer at OD 450. […] As discussed above, such pan-SEZ6 antibodies are compatible with the teachings herein and may be used in conjunction with the disclosed methods.

LU37, a NSCLC tumor = assay: Fab-saporin cytotoxicity in NTX tumor cells; format: cell-based, human; settings: antibody with Fab-saporin, seven days
Procedure: (§1) To corroborate the results of Example 14 and determine whether SEZ6 modulators can mediate toxin internalization and cell killing of human tumor cells (as opposed to engineered cells), mouse lineage-depleted NTX cells were plated and subsequently exposed to anti-SEZ6 antibodies and Fab-saporin.
(§2) NTX tumors were dissociated into a single cell suspension and plated on Primaria™ plates (BD Biosciences) in growth factor supplemented serum free media as is known in the art. After culturing the cells for one day at 37° C./5% CO2/5% O2, they were treated with a control (IgG1, IgG2a or IgG2b) or a murine SEZ6 modulator and Fab-saporin as described in Example 14. After seven days, the modulator-mediated saporin cytotoxicity was assessed by quantifying the remaining number of live cells using Cell Titer Glo.

LU100, a SCLC tumor = assay: Fab-saporin cytotoxicity in NTX tumor cells; format: cell-based, human; settings: 50 and 500 pM antibody with Fab-saporin, seven days
Procedure: as §1, §2

LU80, a SCLC tumor = assay: Fab-saporin cytotoxicity in NTX tumor cells; format: cell-based, human; settings: antibody with Fab-saporin, seven days
Procedure: as §1, §2

rat SEZ6 = assay: Flow cytometry cross reactivity, RIN-m5F cells; format: binding; settings: 5 μg/mL antibody
Sequence of rat SEZ6 (as listed by the source): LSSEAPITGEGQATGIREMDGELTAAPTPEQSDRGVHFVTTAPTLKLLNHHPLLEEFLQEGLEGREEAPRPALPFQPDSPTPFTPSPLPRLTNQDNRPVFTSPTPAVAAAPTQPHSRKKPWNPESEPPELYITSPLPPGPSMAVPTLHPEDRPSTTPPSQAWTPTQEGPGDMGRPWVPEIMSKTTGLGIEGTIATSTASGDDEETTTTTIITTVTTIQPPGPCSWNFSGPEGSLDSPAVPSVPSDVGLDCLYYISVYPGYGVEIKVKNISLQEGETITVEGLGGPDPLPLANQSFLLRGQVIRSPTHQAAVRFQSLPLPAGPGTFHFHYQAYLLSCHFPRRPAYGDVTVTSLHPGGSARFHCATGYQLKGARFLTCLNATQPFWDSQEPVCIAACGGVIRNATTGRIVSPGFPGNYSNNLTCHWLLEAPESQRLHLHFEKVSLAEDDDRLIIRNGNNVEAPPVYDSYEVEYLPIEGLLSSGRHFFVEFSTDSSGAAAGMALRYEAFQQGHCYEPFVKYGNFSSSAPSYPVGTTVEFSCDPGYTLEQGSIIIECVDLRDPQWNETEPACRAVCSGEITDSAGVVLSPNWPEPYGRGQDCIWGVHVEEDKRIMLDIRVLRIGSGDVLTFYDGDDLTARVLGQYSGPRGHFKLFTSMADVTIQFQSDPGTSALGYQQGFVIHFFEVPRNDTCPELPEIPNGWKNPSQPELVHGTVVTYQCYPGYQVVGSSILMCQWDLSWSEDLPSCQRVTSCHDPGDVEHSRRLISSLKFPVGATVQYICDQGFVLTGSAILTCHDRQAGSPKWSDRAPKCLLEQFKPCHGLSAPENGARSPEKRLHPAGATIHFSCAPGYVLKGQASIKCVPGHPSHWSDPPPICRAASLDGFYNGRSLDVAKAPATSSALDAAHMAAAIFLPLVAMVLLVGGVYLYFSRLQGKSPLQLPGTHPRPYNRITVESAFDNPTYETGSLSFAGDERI
In short: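 Neuro2a (mouse SEZ6), RIN-m5F (rat SEZ6) or yeast displaying cynomolgus SEZ6 extracellular domain, 1×10^5 cells, incubated 30 min with 5 μg/mL antibody in PBS/2% FCS. Detection by DyLight 649 anti-mouse IgG Fc secondary (1:200, 15 min), then flow cytometry, with DAPI for mammalian cells only.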

mouse SEZ6 = target: T4, mouse SEZ6 (Mus musculus, UniProt Q7TSK2); assay: Flow cytometry cross reactivity, Neuro2a cells; format: binding; settings: 5 μg/mL antibody
T4 construct: Neuro2a (ATCC Cat # CCL131), and RIN-m5F (ATCC cat # CRL-11605) cell lines which express mouse SEZ6 and rat SEZ6; host or cells: Neuro2a
T4 sequence (Q7TSK2 20-991): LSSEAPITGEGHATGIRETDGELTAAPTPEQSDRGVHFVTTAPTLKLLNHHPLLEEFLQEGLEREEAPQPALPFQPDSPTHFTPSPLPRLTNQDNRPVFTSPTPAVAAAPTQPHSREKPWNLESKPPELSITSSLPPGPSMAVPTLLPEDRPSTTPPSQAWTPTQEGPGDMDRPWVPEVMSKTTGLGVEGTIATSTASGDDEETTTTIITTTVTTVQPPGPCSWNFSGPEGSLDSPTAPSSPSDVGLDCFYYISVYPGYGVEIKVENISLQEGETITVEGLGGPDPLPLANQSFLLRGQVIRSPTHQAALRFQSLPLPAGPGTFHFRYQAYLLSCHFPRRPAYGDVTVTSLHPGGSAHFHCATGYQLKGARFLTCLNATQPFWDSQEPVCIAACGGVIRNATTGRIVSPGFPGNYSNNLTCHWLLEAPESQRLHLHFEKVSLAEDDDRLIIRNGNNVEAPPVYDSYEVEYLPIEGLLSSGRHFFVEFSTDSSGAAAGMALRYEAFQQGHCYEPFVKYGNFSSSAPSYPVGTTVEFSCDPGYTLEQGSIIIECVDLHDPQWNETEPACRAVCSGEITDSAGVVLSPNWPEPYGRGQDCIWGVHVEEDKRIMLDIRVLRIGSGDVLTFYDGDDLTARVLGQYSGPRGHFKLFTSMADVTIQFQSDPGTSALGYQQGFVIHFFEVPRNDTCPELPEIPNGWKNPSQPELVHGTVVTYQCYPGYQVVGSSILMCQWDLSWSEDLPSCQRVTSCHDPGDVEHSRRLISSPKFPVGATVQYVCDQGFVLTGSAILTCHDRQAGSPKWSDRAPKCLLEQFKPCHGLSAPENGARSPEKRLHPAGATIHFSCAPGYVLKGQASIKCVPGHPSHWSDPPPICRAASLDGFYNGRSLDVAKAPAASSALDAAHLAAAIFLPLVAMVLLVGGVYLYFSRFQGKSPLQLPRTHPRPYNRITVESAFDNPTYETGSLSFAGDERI
Procedure: (§3) In this regard flow cytometry was performed using a FACSCanto II as per the manufacturer's instructions in order to confirm that selected SC17 antibody modulators can immunospecifically associate with human SEZ6 and to determine whether the same modulators cross-react with cynomolgus, rat and/or murine SEZ6 in addition to SEZ6L and SEZ6L2. More particularly modulators were tested for cross reactivity to murine SEZ6 and rat SEZ6 by flow cytometry against Neuro2a (ATCC Cat # CCL131), and RIN-m5F (ATCC cat # CRL-11605) cell lines which express mouse SEZ6 and rat SEZ6, respectively. For examining cross reactivity to cynomolgus SEZ6, yeast displaying the extracellular domain of cynomolgus SEZ6 (Boder et al, 1997) were used for flow cytometry analysis.
(§4) Briefly 1×10^5 cells per well of Neuro2a, RIN-5mF, or yeast displaying cynomolgus SEZ6 cells were incubated for 30 minutes with 50 μL PBS (2% FCS) buffer with 5 μg/mL antibody. Cells were washed twice with the same buffer and then incubated with 50 μL per sample DyLight 649 labeled goat-anti-mouse IgG, Fc fragment specific secondary diluted 1:200 in PBS buffer. After incubating for 15 minutes cells were washed twice with the PBS buffer and re-suspended in the same with DAPI for flow cytometry analysis of Neuro2a and Rin-m5F or buffer without DAPI for flow cytometric analysis of yeast cells with cSEZ6.

LU50 LCNEC tumor = assay: NTX tumor growth in immunodeficient mice, murine ADCs; format: in vivo, human; settings: three injections of 1 mg/kg intraperitoneally over seven days, NOD/SCID mice
Procedure: Patient-derived NTX tumors were grown subcutaneously in the flanks of female NOD/SCID recipient mice using art-recognized techniques. Tumor volumes and mouse weights were monitored twice per week. When tumor volumes reached 150-250 mm^3, mice were randomly assigned to treatment groups and injected intraperitoneally with SC17-ADC1 or a control MsIgG1-ADC1. Mice were given three injections of 1 mg/kg (indicated by the vertical lines in FIG. 17B) over a period of seven days. Following treatment, tumor volumes and mouse weights were monitored until tumors exceeded 800 mm^3 or mice became sick.

cynomolgus SEZ6 = assay: Flow cytometry cross reactivity, yeast displaying extracellular domain of cynomolgus SEZ6; format: binding; settings: 5 μg/mL antibody
Procedure: as §3, §4

Molecule	Discontinuous (SEZ6 ECD)	IHC staining of HEK-293T cell pellets overexpressing SEZ6 compared to naïve HEK-293T cell pellets (SEZ6)	cross reactivity with SEZ6L2 (SEZ6L2; ELISA, antibody 1 μg/mL)	binds SEZ6 family member SEZ6L2 (dagger) (SEZ6L2; mark in Table 5)	number of tumor cells, LU37 (LU37, a NSCLC tumor)	number of tumor cells, LU100 (LU100, a SCLC tumor)	number of tumor cells, LU80 (LU80, a SCLC tumor)	cross reactivity to rat SEZ6 (rat SEZ6)	cross reactivity to murine SEZ6 (mouse SEZ6)	duration of tumor growth suppression, LU50 (LU50 LCNEC tumor)	cross reactivity to cynomolgus SEZ6 (cynomolgus SEZ6)
B1	Yes	specific staining									
B2			cross-reactive	SC17.6^†, SC17.28^†, SC17.103, SC17.109, SC17.119,	reduction in the number of tumor cells	reduction of tumor cells	reduction in the number of tumor cells	cross reactive	cross reactive		
B3	Yes							lack of cross reactivity		35 days	lack of cross reactivity
